Data set [1] addresses T1, SSB_BA (Bacillus anthracis, UniProt Q81JI3 1-172).
T1 sequence: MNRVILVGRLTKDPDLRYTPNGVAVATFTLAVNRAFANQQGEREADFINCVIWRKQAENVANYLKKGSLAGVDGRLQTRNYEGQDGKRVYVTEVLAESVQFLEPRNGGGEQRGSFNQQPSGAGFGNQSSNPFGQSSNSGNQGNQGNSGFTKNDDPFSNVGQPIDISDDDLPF
Kind of data set: FRET titration; […]) or 1 nM ([…]; FRET at 25 C; pH not given. Particulars: protein: recombinant; tags: none stated (pET29b); label: 5'-Cy5; 3'-Cy3.

Data set [2] concerns the target SSB_EC (Escherichia coli, UniProt P0AGE0 2-178). The data set can be described thus: FRET titration; 25 C, 40 nM DNA (200 nM in Results text); high FRET peak at 0.44 uM, (SSB)35 mode at >=1.1 uM; Anisotropy: buffer B (composition not in material), 25 mM KCl, 5 mM Mg2+, 25 C, 0.1 nM (Results) or 1 nM (Methods) Fl-(dT)20; temperature series 20-37 C with 25 mM NaCl and glycerol; salt series 0-200/250 mM NaCl at 25 C; FRET at 25 C; pH not given. Particulars: chain copies: 4; label: 5'-Cy5; 3'-Cy3.

The target in data set [3] is T1, SSB_BA. Kind of data set: fluorescence anisotropy; […]) or 1 nM ([…]; FRET at 25 C; pH not given. Particulars: protein: recombinant; tags: none stated (pET29b); label: 5'-fluorescein. In general terms: In fluorescence polarisation assays a small probe gives low polarisation when free and higher when bound to something large.

Drawing on publication PMC3464605, “Thermodynamic analysis of DNA binding by a Bacillus single stranded DNA binding protein”, this text covers binding result and Kd for 2 molecules.

Where “and” joins values, the source holds several entries; their conditions need not be identical. Identical values can stand only once.

Sequence of SSB_EC (P0AGE0 2-178): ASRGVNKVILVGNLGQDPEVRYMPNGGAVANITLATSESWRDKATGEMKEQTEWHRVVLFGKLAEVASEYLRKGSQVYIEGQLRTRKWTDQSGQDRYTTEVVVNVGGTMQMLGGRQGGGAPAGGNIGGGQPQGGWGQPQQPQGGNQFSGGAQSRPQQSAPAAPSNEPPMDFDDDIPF

B1: Cy5-(dT)70-Cy3 (ssDNA)
DNA: TTTTTTTTTTTTTTTTTTTTTTTTTTTTTTTTTTTTTTTTTTTTTTTTTTTTTTTTTTTTTTTTTTTTTT
With B1, the binding result in data set [1] and in data set [2] was “binds” each time.

B2: Fl-(dT)20 (ssDNA)
DNA: TTTTTTTTTTTTTTTTTTTT
On to B2, for which, in data set [3], the Kd is 1 nM and 1.2 nM.

Broadly, the Kd is the concentration at which binding is half-saturated.
